This series relates to F1*sub RNA substrate (template-directed ligation). In words: fraction ligated after 30 min (ligated reads / total reads); higher = more ligase activity; sequences stand for … in GAGACCGCAACTGAAAAGTTGT…AGTTCTGCACGTAGAAGCAAAAGGC
The following applies: 42 °C. The method in brief:
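Templates from an oligo pool were PCR-amplified, transcribed with T7 and gel-purified to give the ribozyme variants. Ligated and unligated products were separated on gel, reverse transcribed using barcoded primers, and read on a MiSeq. A quality filter of ≥20 was applied to core bases. Fraction ligated was taken as ligated reads as a share of all reads per variant.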
Sequence “TATCACTTGTCTAGACACTTTGGAGGGTTGA [3d1832]” registered a fraction ligated of 0.218.

For the sequence “TATCACTTGTCTAGACACTTTGGATGGGTTA [3d1834]”, the fraction ligated was found to be 0.738.

With “TATCACTTGTCTAGACACTTTGGATGGGTTG [3d1835]”, the fraction ligated stood at 0.76.

The sequence “TATCACTTGTCTAGACACTTTGGATGGGTTGA [2d195]” had a fraction ligated of 0.799.

“TATCACTTGTCTAGACACTTTGGATGGTTGA [3d1833]” gave a fraction ligated of 0.361.

As for “TATCACTTGTCTAGACACTTTGGTGGGTTGA [3d1831]”, the fraction ligated amounted to 0.195.

“TATCACTTGTCTAGACATTTGGATGGGTTGA [3d1828]” showed a fraction ligated of 0.814.

“TATCACTTGTCTAGACCTTTGGATGGGTTGA [3d1827]” displayed a fraction ligated of 0.737.

“TATCACTTGTCTAGCACTTTGGATGGGTTGA [3d1825]”: the fraction ligated was determined as 0.754.

With “TATCACTTGTCTGACACTTTGGATGGGTTGA [3d1823]”, the fraction ligated was determined as 0.77.

In the case of “TATCACTTGTGAAACACTTTGGATGGGTTGA [3d1719]”, the fraction ligated turned out to be 0.842.

For “TATCACTTGTGAAGAACTTTGGATGGGTTGA [3d1721]”, the fraction ligated was found to be 0.851.

Turning to “TATCACTTGTGAAGACACTTGGATGGGTTGA [3d1724]”, the fraction ligated came out at 0.801.

In turn, “TATCACTTGTGAAGACACTTTGATGGGTTGA [3d1725]” returned a fraction ligated of 0.818.

Consider “TATCACTTGTGAAGACACTTTGGAGGGTTGA [3d1727]”, for which the fraction ligated is 0.0789.

The sequence “TATCACTTGTGAAGACACTTTGGATGGGTTA [3d1729]” showed a fraction ligated of 0.823.

Turning to “TATCACTTGTGAAGACACTTTGGATGGGTTG [3d1730]”, the fraction ligated was 0.854.

Sequence “TATCACTTGTGAAGACACTTTGGATGGGTTGA [2d180]” had a fraction ligated of 0.853.

In turn, “TATCACTTGTGAAGACACTTTGGATGGTTGA [3d1728]” gave a fraction ligated of 0.243.

As to “TATCACTTGTGAAGACACTTTGGTGGGTTGA [3d1726]”, the fraction ligated was 0.102.

Regarding “TATCACTTGTGAAGACATTTGGATGGGTTGA [3d1723]”, the fraction ligated turned out to be 0.855.

In the case of “TATCACTTGTGAAGACCTTTGGATGGGTTGA [3d1722]”, the fraction ligated is 0.823.

As for “TATCACTTGTGAAGCACTTTGGATGGGTTGA [3d1720]”, the fraction ligated turned out to be 0.845.

The sequence “TATCACTTGTGAGACACTTTGGATGGGTTGA [3d1718]” returned a fraction ligated of 0.841.

Take “TATCACTTGTGTAAAACTTTGGATGGGTTGA [3d1744]”: the fraction ligated amounted to 0.856.

In the case of “TATCACTTGTGTAAACACTTGGATGGGTTGA [3d1747]”, the fraction ligated was found to be 0.816.

In turn, “TATCACTTGTGTAAACACTTTGATGGGTTGA [3d1748]” displayed a fraction ligated of 0.831.

For “TATCACTTGTGTAAACACTTTGGAGGGTTGA [3d1750]”, the fraction ligated amounted to 0.0713.

Sequence “TATCACTTGTGTAAACACTTTGGATGGGTTA [3d1752]” had a fraction ligated of 0.805.

“TATCACTTGTGTAAACACTTTGGATGGGTTG [3d1753]” gave a fraction ligated of 0.859.

Take “TATCACTTGTGTAAACACTTTGGATGGTTGA [3d1751]”: the fraction ligated was 0.328.

As to “TATCACTTGTGTAAACACTTTGGTGGGTTGA [3d1749]”, the fraction ligated worked out at 0.0929.

As to “TATCACTTGTGTAAACATTTGGATGGGTTGA [3d1746]”, the fraction ligated amounted to 0.833.

In the case of “TATCACTTGTGTAAACCTTTGGATGGGTTGA [3d1745]”, the fraction ligated is 0.807.

In turn, “TATCACTTGTGTAACACTTTGGATGGGTTGA [3d1732]” had a fraction ligated of 0.841.

On to “TATCACTTGTGTAAGAACTTGGATGGGTTGA [3d1765]”, for which the fraction ligated is 0.84.

“TATCACTTGTGTAAGAACTTTGATGGGTTGA [3d1766]” gave a fraction ligated of 0.834.

Turning to “TATCACTTGTGTAAGAACTTTGGAGGGTTGA [3d1768]”, the fraction ligated was determined as 0.0385.

On to “TATCACTTGTGTAAGAACTTTGGATGGGTTA [3d1770]”, for which the fraction ligated amounted to 0.771.

As to “TATCACTTGTGTAAGAACTTTGGATGGGTTG [3d1771]”, the fraction ligated came to 0.85.

The sequence “TATCACTTGTGTAAGAACTTTGGATGGTTGA [3d1769]” registered a fraction ligated of 0.0688.

As for “TATCACTTGTGTAAGAACTTTGGTGGGTTGA [3d1767]”, the fraction ligated was determined as 0.0854.

“TATCACTTGTGTAAGAATTTGGATGGGTTGA [3d1764]” showed a fraction ligated of 0.863.

On to “TATCACTTGTGTAAGACACTGGATGGGTTGA [3d1786]”, for which the fraction ligated was found to be 0.792.

For “TATCACTTGTGTAAGACACTTGATGGGTTGA [3d1787]”, the fraction ligated worked out at 0.8.

Sequence “TATCACTTGTGTAAGACACTTGGAGGGTTGA [3d1789]” displayed a fraction ligated of 0.011.

In turn, “TATCACTTGTGTAAGACACTTGGATGGGTTA [3d1791]” registered a fraction ligated of 0.349.

“TATCACTTGTGTAAGACACTTGGATGGGTTG [3d1792]” came in with a fraction ligated of 0.801.

“TATCACTTGTGTAAGACACTTGGATGGTTGA [3d1790]” gave a fraction ligated of 0.0286.

Consider “TATCACTTGTGTAAGACACTTGGTGGGTTGA [3d1788]”, for which the fraction ligated stood at 0.0212.

The sequence “TATCACTTGTGTAAGACACTTTATGGGTTGA [3d1793]” came in with a fraction ligated of 0.0875.

Sequence “TATCACTTGTGTAAGACACTTTGAGGGTTGA [3d1795]” returned a fraction ligated of 0.0251.

Consider “TATCACTTGTGTAAGACACTTTGATGGGTTA [3d1797]”, for which the fraction ligated came out at 0.0515.

On to “TATCACTTGTGTAAGACACTTTGATGGGTTG [3d1798]”, for which the fraction ligated worked out at 0.544.

In turn, “TATCACTTGTGTAAGACACTTTGATGGTTGA [3d1796]” yielded a fraction ligated of 0.0289.

“TATCACTTGTGTAAGACACTTTGGAGGGTTA [3d1804]” registered a fraction ligated of 0.0394.

For the sequence “TATCACTTGTGTAAGACACTTTGGAGGGTTG [3d1805]”, the fraction ligated was determined as 0.0238.

In turn, “TATCACTTGTGTAAGACACTTTGGAGGTTGA [3d1803]” showed a fraction ligated of 0.0314.

For “TATCACTTGTGTAAGACACTTTGGATGGGTT [3d1808]”, the fraction ligated was found to be 0.615.

Regarding “TATCACTTGTGTAAGACACTTTGGATGGGTTA [2d192]”, the fraction ligated came to 0.823.

Regarding “TATCACTTGTGTAAGACACTTTGGATGGGTTG [2d193]”, the fraction ligated was 0.845.

Turning to “TATCACTTGTGTAAGACACTTTGGATGGGTTGA [1d10]”, the fraction ligated worked out at 0.859.

Consider “TATCACTTGTGTAAGACACTTTGGATGGTTA [3d1806]”, for which the fraction ligated was 0.101.

“TATCACTTGTGTAAGACACTTTGGATGGTTG [3d1807]”: the fraction ligated came out at 0.115.

Sequence “TATCACTTGTGTAAGACACTTTGGATGGTTGA [2d191]” registered a fraction ligated of 0.198.

In turn, “TATCACTTGTGTAAGACACTTTGGGGGTTGA [3d1799]” showed a fraction ligated of 0.0501.

“TATCACTTGTGTAAGACACTTTGGTGGGTTA [3d1801]” showed a fraction ligated of 0.0254.

For “TATCACTTGTGTAAGACACTTTGGTGGGTTG [3d1802]”, the fraction ligated turned out to be 0.0157.

“TATCACTTGTGTAAGACACTTTGGTGGTTGA [3d1800]” showed a fraction ligated of 0.0267.

“TATCACTTGTGTAAGACACTTTGTGGGTTGA [3d1794]” came in with a fraction ligated of 0.00464.

Take “TATCACTTGTGTAAGACATTGGATGGGTTGA [3d1779]”: the fraction ligated came out at 0.848.

For the sequence “TATCACTTGTGTAAGACATTTGATGGGTTGA [3d1780]”, the fraction ligated is 0.494.

With “TATCACTTGTGTAAGACATTTGGAGGGTTGA [3d1782]”, the fraction ligated was found to be 0.0398.

“TATCACTTGTGTAAGACATTTGGATGGGTTA [3d1784]” had a fraction ligated of 0.822.

The sequence “TATCACTTGTGTAAGACATTTGGATGGGTTG [3d1785]” gave a fraction ligated of 0.838.

The sequence “TATCACTTGTGTAAGACATTTGGATGGTTGA [3d1783]” gave a fraction ligated of 0.169.

As for “TATCACTTGTGTAAGACATTTGGTGGGTTGA [3d1781]”, the fraction ligated came to 0.0614.

Sequence “TATCACTTGTGTAAGACCTTGGATGGGTTGA [3d1772]” gave a fraction ligated of 0.856.

With “TATCACTTGTGTAAGACCTTTGATGGGTTGA [3d1773]”, the fraction ligated came out at 0.819.

In turn, “TATCACTTGTGTAAGACCTTTGGAGGGTTGA [3d1775]” registered a fraction ligated of 0.137.

For “TATCACTTGTGTAAGACCTTTGGATGGGTTA [3d1777]”, the fraction ligated turned out to be 0.81.

On to “TATCACTTGTGTAAGACCTTTGGATGGGTTG [3d1778]”, for which the fraction ligated turned out to be 0.812.

With “TATCACTTGTGTAAGACCTTTGGATGGTTGA [3d1776]”, the fraction ligated stood at 0.204.

Sequence “TATCACTTGTGTAAGACCTTTGGTGGGTTGA [3d1774]” registered a fraction ligated of 0.157.

Regarding “TATCACTTGTGTAAGACTTTGGATGGGTTGA [3d1754]”, the fraction ligated was 0.868.

On to “TATCACTTGTGTAAGCACTTGGATGGGTTGA [3d1757]”, for which the fraction ligated was found to be 0.805.

Sequence “TATCACTTGTGTAAGCACTTTGATGGGTTGA [3d1758]” showed a fraction ligated of 0.811.

The sequence “TATCACTTGTGTAAGCACTTTGGAGGGTTGA [3d1760]” showed a fraction ligated of 0.121.

For “TATCACTTGTGTAAGCACTTTGGATGGGTTA [3d1762]”, the fraction ligated is 0.831.

“TATCACTTGTGTAAGCACTTTGGATGGGTTG [3d1763]” showed a fraction ligated of 0.851.

“TATCACTTGTGTAAGCACTTTGGATGGTTGA [3d1761]” showed a fraction ligated of 0.256.

“TATCACTTGTGTAAGCACTTTGGTGGGTTGA [3d1759]” displayed a fraction ligated of 0.117.

In turn, “TATCACTTGTGTAAGCATTTGGATGGGTTGA [3d1756]” displayed a fraction ligated of 0.851.

Take “TATCACTTGTGTAAGCCTTTGGATGGGTTGA [3d1755]”: the fraction ligated worked out at 0.76.

In the case of “TATCACTTGTGTAGAACTTTGGATGGGTTGA [3d1734]”, the fraction ligated came out at 0.822.

With “TATCACTTGTGTAGACACTTGGATGGGTTGA [3d1737]”, the fraction ligated worked out at 0.826.

The sequence “TATCACTTGTGTAGACACTTTGATGGGTTGA [3d1738]” registered a fraction ligated of 0.824.

Values taken from the supplement of paper PMC6755084.
